The text below walks through data of article PMC1257591, “In Vitro Inhibition of Human Hepatic and cDNA-Expressed Sulfotransferase Activity with 3-Hydroxybenzo[a]pyrene by Polychlorobiphenylols” (Environmental Health Perspectives, 2005).

Changes are numbered by the printed parent chain. In names and notes the source's numbering stands.

Common to all, as to type: biochemical, human
Substrate in data set [1]: Oc1ccc2ccc3c4ccccc4cc4ccc1c2c43
The data set can be described thus: Kinetics of 3-OH-BaP sulfonation by expressed SULT1A1*2. The settings on record: other: expressed SULT1A1*2; two-substrate model. The source says:
(§1) The expression of human SULT1A1*1, SULT1A3, SULT1B1, and SULT1E1 in Escherichia coli has been described previously ([Dajani et al. 1998]; [Wang et al. 1998]). We grew E. coli cells containing the respective sulfotransferase genes as described previously ([Falany et al. 1990], [1994]), and prepared 100,000g supernatant fractions for use in inhibition studies and for partial purification of the SULT enzymes. We purchased expressed SULT1A1*2 cytosolic extract from PanVera (Madison, WI) and used it as supplied.
We determined SULT activity with 3-OH-BaP as substrate by a fluorimetric assay of BaP-3-SO4 product formation, as described previously ([Wang et al. 2004]). […] Duplicate tubes were prepared for each incubation condition. We examined the kinetics of sulfonation in three liver cytosol fractions by systematically varying the concentration of 3-OH-BaP or PAPS. […]
(§2) We determined the kinetic parameters for 3-OH-BaP sulfonation by partially purified preparations of the cDNA-expressed SULT isozymes under incubation conditions similar to those used for liver cytosol. […]
(§3) We calculated the enzyme kinetic parameters from studies with variable concentrations of 3-OH-BaP using nonlinear regression analysis and GraphPad 4.0 software (GraphPad Software, San Diego, CA). […]

Substrate in data set [2]: Oc1ccc2ccc3c4ccccc4cc4ccc1c2c43
The data set can be described thus: Kinetics of 3-OH-BaP sulfonation by partially purified cDNA-expressed SULT1A1*1. To be noted: other: apparent; partially purified SULT1A1*1; 3-OH-BaP as substrate.
Description: as §1
(§4) The 100,000g supernatant fractions of SULT1A1*1, SULT1A3, SULT1B1, and SULT1E1 were partially purified by chromatographic methods ([Falany et al. 1990], [1994]). After the last step, a 3′-phosphoadenosine 5′-phosphate (PAP)-agarose affinity column, we dialyzed the fractions eluted with PAP with three changes of buffer to remove PAP before the assay of SULT activity with 3-OH-BaP as substrate. We analyzed active fractions by SDS-PAGE ([Laemmli 1970]) to assess the purity of each SULT enzyme. We stained the gels with Coomassie R-250 reagent and determined the percentage of protein present as each respective SULT enzyme by scanning densitometry.
(§5) We determined SULT activity with 3-OH-BaP as substrate by a fluorimetric assay of BaP-3-SO4 product formation, as described previously ([Wang et al. 2004]). […] Duplicate tubes were prepared for each incubation condition. We examined the kinetics of sulfonation in three liver cytosol fractions by systematically varying the concentration of 3-OH-BaP or PAPS. When the variable substrate was 3-OH-BaP, we used 12 concentrations in the range from 0.035 to 2.00 μM, and the concentration of PAPS was kept constant at 10 μM. […]
as §2, §3

Substrate in data set [3]: Oc1ccc2ccc3c4ccccc4cc4ccc1c2c43
The data set is described as follows: Kinetics of 3-OH-BaP sulfonation by partially purified cDNA-expressed SULT1A3. To be noted: other: apparent, 3-OH-BaP as substrate.
Description: as §1, §4, §5, §2, §3

Substrate in data set [4]: Oc1ccc2ccc3c4ccccc4cc4ccc1c2c43
The data set can be described thus: Kinetics of 3-OH-BaP sulfonation by partially purified cDNA-expressed SULT1E1. To be noted: other: apparent, 3-OH-BaP as substrate.
Description: as §1, §4, §5, §2, §3

B1: SULT1A1*2 (Homo sapiens; R213H) (protein)
chain: MELIQDTSRPPLEYVKGVPLIKYFAEALGPLQSFQARPDDLLISTYPKSGTTWVSQILDMIYQGGDLEKCHRAPIFMRVPFLEFKAPGIPSGMETLKDTPAPRLLKTHLPLALLPQTLLDQKVKVVYVARNAKDVAVSYYHFYHMAKVHPEPGTWDSFLEKFMVGEVSYGSWYQHVQEWWELSRTHPVLYLFYEDMKENPKREIQKILEFVGHSLPEETVDFVVQHTSFKEMKKNPMTNYTTVPQEFMDHSISPFMRKGMAGDWKTTFTVAQNERFDADYAEKMAGCSLSFRSEL
notes: purchased PanVera (Madison, WI); host or cells: Sf-9
By Km is commonly meant the substrate concentration at which the rate is half of its maximum. With B1, in data set [1], the Km turned out to be 0.022 µM.

B2: SULT1A1*1 (Homo sapiens) (protein)
chain: B1 chain with H213R
notes: made in house; host or cells: Escherichia coli
In general, Vmax refers to the rate approached at saturating substrate. Regarding B2, in data set [2], the Km turned out to be 0.018 µM, the Vmax amounted to 0.00689 µmol/min/mg and the Vmax/Km turned out to be 383000 µL/min/mg.

B3: SULT1A3 (Homo sapiens) (protein)
chain: MELIQDTSRPPLEYVKGVPLIKYFAEALGPLQSFQARPDDLLINTYPKSGTTWVSQILDMIYQGGDLEKCNRAPIYVRVPFLEVNDPGEPSGLETLKDTPPPRLIKSHLPLALLPQTLLDQKVKVVYVARNPKDVAVSYYHFHRMEKAHPEPGTWDSFLEKFMAGEVSYGSWYQHVQEWWELSRTHPVLYLFYEDMKENPKREIQKILEFVGRSLPEETMDFMVQHTSFKEMKKNPMTNYTTVPQELMDHSISPFMRKGMAGDWKTTFTVAQNERFDADYAEKMAGCSLSFRSEL
notes: as for B2
With B3, in data set [3], the Km worked out at 2.90 µM, the Vmax was 0.333 µmol/min/mg and the Vmax/Km was 115000 µL/min/mg.

B4: SULT1E1 (Homo sapiens) (protein)
chain: MNSELDYYEKFEEVHGILMYKDFVKYWDNVEAFQARPDDLVIATYPKSGTTWVSEIVYMIYKEGDVEKCKEDVIFNRIPFLECRKENLMNGVKQLDEMNSPRIVKTHLPPELLPASFWEKDCKIIYLCRNAKDVAVSFYYFFLMVAGHPNPGSFPEFVEKFMQGQVPYGSWYKHVKSWWEKGKSPRVLFLFYEDLKEDIRKEVIKLIHFLERKPSEELVDRIIHHTSFQEMKNNPSTNYTTLPDEIMNQKLSPFMRKGITGDWKNHFTVALNEKFDKHYEQQMKESTLKFRTEI
notes: as for B2
As to B4, in data set [4], the Michaelis constant (Km) is 0.05 µM, the Vmax is 0.00835 µmol/min/mg and the Vmax/Km worked out at 167000 µL/min/mg.
